Reference: the supplement of paper PMC10567573

B1: RAD51 (parent)
chain: RFLRMLLRLADEFGVAVVITNQVV
B2: TBX6 (parent)
chain: AFLELPHGSGGSGYPAAPPAVPFA

Variants of: B1
Test: protein stability index of a GFP-peptide fusion (GPS, HEK-293T) (PSI 1-6); higher = more stable
Conditions: c terminus: a fixed tail appended
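Note: lentivirally expressed fusions sorted by FACS into six bins by GFP to DsRed ratio, PSI derived from sequencing read proportions per bin multiplied by bin number.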

Variant | protein stability index
R1Q | 1.79
R1V | 1.52
R1C | 2.23
R1E | 2.06
R1N | 2.71
R1S | 2.27
R1M | 2.43
R1K | 2.54
R1F | 1.92
R1W | 3
R1T | 1.37
R1L | 2.12
R1A | 1.62
R1H | 1.78
R1P | 2.08
R1G | 2.51
R1I | 2.9
R1D | 2
R1Y | 2.8
L6A | 1.91
L6H | 1.55
L6N | 2.75
L6M | 2.02
L6C | 2.78

Variant | protein stability index
L6S | 3.28
L6G | 2.56
L6P | 3.81
L6R | 2.89
L6Y | 3.5
L6V | 2.54
L6W | 2.54
L6K | 1.96
L6T | 3.04
L6Q | 4.57
L6F | 3.14
R4I | 2.45
R4V | 1.91
R4S | 3.21
R4D | 1.96
R4H | 2.49
R4F | 2.58
R4C | 2.77
R4N | 3.36
R4W | 1.77
R4Q | 1.92
R4T | 2.42
R4M | 1.97
R4P | 2.39

Variant | protein stability index
R4Y | 2.93
R4E | 1.23
R4K | 2.82
R4A | 2.24
L7P | 2.49
L7C | 2.54
L7H | 2.34
L7A | 1.25
L7F | 2.04
L7D | 1.3
L7G | 3.06
L7K | 1.98
L7N | 1.71
L7Q | 2.34
L7E | 2.69
L7M | 1.55
L7I | 2.79
M5L | 2.13
M5E | 2.43
M5I | 2.23
M5Q | 2.11
M5H | 3.79
M5Y | 2.57
M5S | 2.93

Variant | protein stability index
M5C | 3.05
M5D | 2.28
M5K | 4.13
M5F | 2.15
M5N | 1.93
M5R | 1.83
M5T | 3.18
M5A | 3.9
F2W | 1.88
F2Q | 2.22
F2R | 1.7
F2K | 1.39
F2T | 3.18
F2Y | 2.21
F2I | 2.4
F2V | 1.59
F2N | 2.1
F2S | 1.91
F2E | 1.51
F2P | 2.89
F2G | 1.75
F2M | 2.29
F2L | 1.6
F2H | 1.78

Variant | protein stability index
F2A | 1.89
F2C | 1.75
F2D | 2.27
L3C | 1.78
L3R | 1.17
L3A | 4.15
L3V | 3.98
L3G | 2.62
L3E | 3.2
L3S | 3.09
L3T | 3.74
L3H | 2.75
L3D | 2.04
L3I | 1.35
L3K | 2.6
L3Y | 2.14
L3N | 3.69
L3Q | 1.78
L3M | 2.19
L3W | 2.03

Variants of: B2
Test: as above
Conditions: c terminus: a fixed tail appended

Variant | protein stability index
P22I | 1.73
P22W | 2.25
P22Q | 2.52
P22A | 2.14
P22C | 2.1
P22T | 1.86
P22F | 2.13
P22N | 1.89
P22V | 2.16
P22S | 2.18
P22K | 2.19
P22E | 2.54
P22M | 2.02
P22L | 1.4
P22D | 3.29
P22Y | 2.02
P22H | 2.46
P22R | 2.3
P22G | 2.42
S12V | 2.55
S12Y | 1.63
S12W | 2.55
S12T | 2.4
A16D | 2.09
A16W | 1.94

Variant | protein stability index
A16V | 2.19
A16H | 2.21
A16S | 2.22
A16F | 2.18
A16T | 2.63
A16R | 2.29
A16C | 1.61
A16K | 2.99
A16L | 2.32
A16N | 2.43
A16Q | 2.77
A16I | 2.24
A16E | 3.49
A16M | 2.17
A16Y | 2.46
A16G | 2.09
P18T | 2.41
P18I | 2.29
P18L | 2.44
P18V | 2.01
P18Y | 2.06
P18K | 2.4
P18G | 2.39
P18Q | 2.22
P18N | 2.19

Variant | protein stability index
P18H | 2.23
P18D | 2.61
P18S | 2.55
P18W | 2.03
P18F | 1.96
P18M | 2.56
P18A | 1.94
P18R | 2.17
P18C | 2.4
P18E | 3.32
P19S | 2.13
P19H | 2.23
P19C | 2.05
P19E | 2.78
P19A | 2.72
P19G | 2.38
P19D | 2.56
P19W | 2.83
P19K | 2.07
P19V | 2.13
P19Q | 2.47
P19N | 2.06
P19F | 1.59
P19L | 2.25
P19M | 2.19

Variant | protein stability index
P19Y | 1.48
P19T | 2.37
P19R | 2.17
P19I | 2.27
F23K | 3.38
F23L | 2.35
F23I | 2.52
F23A | 3.48
F23V | 2.89
F23N | 3.76
F23R | 3.3
F23W | 2.18
F23D | 4.19
F23C | 3.36
F23T | 3
F23G | 3.72
F23H | 3.05
F23S | 3.21
F23Q | 3.7
F23M | 2.62
F23Y | 2.42
F23E | 3.56
V21K | 3.23
V21Y | 2.12
V21D | 3.46

Variant | protein stability index
V21W | 2.07
V21G | 3.31
V21S | 2.59
V21C | 2.09
V21F | 1.97
V21M | 2.36
V21L | 2.58
V21N | 2.64
V21E | 3.02
V21R | 2.64
Y14G | 3.04
Y14F | 2.77
Y14E | 3.8
Y14K | 2.78
Y14M | 2.84
Y14L | 2.85
Y14I | 2.65
Y14Q | 3.06
Y14A | 3.1
Y14N | 3.54
Y14D | 3.33
Y14C | 2.99
Y14W | 2.21
Y14T | 3.48
Y14H | 2.5

Variant | protein stability index
Y14S | 3.25
Y14V | 2.73
Y14R | 3.03
P15S | 2.38
P15E | 3.03
P15C | 1.8
P15W | 1.99
P15V | 2.08
P15A | 2.27
P15L | 1.94
P15K | 2.15
P15F | 1.54
P15M | 1.77
P15Y | 2.23
P15H | 1.93
P15G | 2.21
P15Q | 2.01
P15N | 2.48
P15D | 2.81
P15R | 1.88
P15I | 2.01
P15T | 2.56
A24C | 1.53
A24L | 1.6
A24V | 2.47

Variant | protein stability index
A24Y | 1.89
A24F | 1.54
A24H | 1.92
A24N | 2.68
A24G | 2.56
A24W | 1.67
A24I | 2.23
A24Q | 2.71
A24D | 3.33
A24S | 2.63
A24K | 2.55
A24M | 2.19
A24R | 2.54
A24T | 2.55
A24E | 3.4
A20G | 2.73
A20F | 2.4
A20L | 2.21
A20T | 2.42
A20E | 2.87
A20W | 2.46
A20H | 2.38
A20S | 2.52
A20D | 3.49
A20K | 2.85

Variant | protein stability index
A20M | 2.35
A20Y | 2.03
A20V | 1.84
A20C | 2.68
A20N | 2.69
A20Q | 2.99
A20I | 2.11
A20R | 2.56
G13I | 2.51
G13N | 2.4
G13W | 1.73
G13D | 3.02
G13S | 2.44
G13H | 2.23
G13F | 2.21
G13L | 1.83
G13T | 2.52
G13Q | 2.89
G13K | 2.58
G13Y | 1.66
G13C | 2.83
G13A | 2.87
G13V | 2.42
G13R | 2.22
G13M | 2.07

Variant | protein stability index
G13E | 2.61
A17S | 2.46
A17F | 1.99
A17V | 2.62
A17M | 2.17
A17G | 2.03
A17R | 2.37
A17L | 2.57
A17I | 2.65
A17T | 2.58
A17C | 2.61
A17W | 2.02
A17N | 2.22
A17Y | 2.36
A17Q | 2.54
A17K | 2.4
A17D | 2.85
A17E | 2.97
